From paper PMC6249252, “COMP and TSP-4 interact specifically with the novel GXKGHR motif only found in fibrillar collagens” (Scientific Reports, 2018)
Read-outs that look alike come from different tables or passages of the source.

Columns and labels:
[1] = biological target: T1, COMP (Homo sapiens, UniProt P49747); experiment: ELISA-style binding assay, COMP on coated collagen model peptides / collagen; conditions: for effect of additive in interaction buffer on COMP binding to peptide 5: peptide 5 coated, COMP in pure TBS-T with the indicated chemical compound, compared to pure TBS (Fig. 3b); for Kd: peptide or collagen coated at 10 µg/ml (500 ng per well) on ELISA plate, pentameric COMP at indicated concentrations, 1 h, room temperature, TBS-T with 0.25% BSA, anti-COMP antibody, four-parameter logistic fit, triplicates, read-out: Apparent KD
T1 sequence (P49747 21-757): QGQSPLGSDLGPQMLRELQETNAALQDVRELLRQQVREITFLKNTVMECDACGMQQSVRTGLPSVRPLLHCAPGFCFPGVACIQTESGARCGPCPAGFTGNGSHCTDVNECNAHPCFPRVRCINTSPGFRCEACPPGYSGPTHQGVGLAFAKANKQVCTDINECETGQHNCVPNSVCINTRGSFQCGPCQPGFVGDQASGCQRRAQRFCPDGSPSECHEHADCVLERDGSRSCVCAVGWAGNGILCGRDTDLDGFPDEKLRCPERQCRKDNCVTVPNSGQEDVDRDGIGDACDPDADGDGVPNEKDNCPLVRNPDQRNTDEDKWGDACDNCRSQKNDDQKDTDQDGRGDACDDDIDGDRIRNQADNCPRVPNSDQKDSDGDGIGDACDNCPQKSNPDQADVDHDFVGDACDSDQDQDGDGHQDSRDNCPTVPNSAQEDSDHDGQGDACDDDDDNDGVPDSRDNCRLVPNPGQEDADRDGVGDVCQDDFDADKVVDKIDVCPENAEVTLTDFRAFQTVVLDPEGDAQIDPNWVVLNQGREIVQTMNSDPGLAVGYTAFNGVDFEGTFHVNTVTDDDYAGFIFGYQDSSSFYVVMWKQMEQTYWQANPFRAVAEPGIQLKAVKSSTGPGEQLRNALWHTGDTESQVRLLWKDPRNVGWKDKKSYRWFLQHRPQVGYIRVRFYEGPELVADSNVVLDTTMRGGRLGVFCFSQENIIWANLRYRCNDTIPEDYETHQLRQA
Description: (§1) For ELISA-style binding assays, rat tail collagen I (BD Bioscience) or the indicated collagen model peptides were diluted in TBS and coated at 10 µg/ml (500 ng per well) overnight at 4 °C. Further steps were performed at room temperature. After washing with TBS-T (TBS containing 0.05% (vol/vol) Tween-20), plates were blocked for 1 h with 1% (wt/vol) BSA in TBS. Strep-tagged COMP was added at indicated concentrations in TBS-T containing 0.25% (wt/vol) BSA) and incubated for 1 h. For assays with addition of cations pure TBS-T was used as interaction buffer. After washing away unbound protein with TBS-T, bound COMP was detected with a 1:3000 dilution of a specific polyclonal antibody against bovine COMP in interaction buffer. The antibody was raised in rabbit against bovine COMP purified from articular cartilage and characterised before in various studies[46]–[48]. The TSP-4 antibody was raised in guinea pigs and was previously described and characterised[30],[49]. The primary antibodies were detected with an HRP–conjugated swine anti-rabbit (DAKO, P0399) or rabbit anti-guinea pig antibody (Sigma, A5545). Bound secondary antibodies were visualised with tetramethylbenzidine as substrate, the reaction was either measured directly at 370 nm or stopped with 10% H2SO4 and measured at 450 nm. Data were analysed using Origin 2017 and fitted using a four-parameter logistic model.

[2] = biological target: T1, COMP; conditions: read-out: dissociation constant for COMP reported for collagen II; cited from earlier work
Description: To elucidate the binding site of COMP on the collagen II helix we incubated pentameric COMP at 200 nM concentration with our generated collagen II foldon library (Fig. 2). […] To confirm our finding and get proper binding affinities we coated the peptide 5 and incubated it with indicated concentration of COMP (Fig. 3a). The dissociation constant for COMP and pep5 (19.3 ± 12 nM) was slightly higher than reported for collagen II (1.72 ± 0.16 nM)[10]. ...

[3] = CD spectroscopy thermal unfolding of collagen model peptides; type: physicochemical; conditions: CD spectroscopy at 210 nm, heated at 1 °C/min, approx. 0.1 mg/ml, 1 mm cell, 4 parameter logistic fit
Description: CD spectra of the col2p5 peptide and its derivatives were measured using a Jasco J–715 equipped with a peltier-element cuvette cooler. The samples were heated at 1 °C/min in a 1 mm path length quartz cell at approx. 0.1 mg/ml. Thermal unfolding was measured in a range between 20 °C and 70–90 °C and specific ellipticity recorded at 210 nm ever 1 °C. Additionally, every 5 °C far-UV spectra (200–250 nm) were recorded in triplicates. Data was fitted with a 4 parameter logistic fit using Origin 2017[45].

[4] = biological target: TSP-4 (UniProt P35443); experiment: ELISA-style binding assay, TSP-4 on coated GVKGHR foldon construct; conditions: GVKGHR foldon construct coated to ELISA plate, incubated with TSP4, anti-TSP4 antibody; fitted; triplicates
Chain of TSP-4 (P35443 27-961): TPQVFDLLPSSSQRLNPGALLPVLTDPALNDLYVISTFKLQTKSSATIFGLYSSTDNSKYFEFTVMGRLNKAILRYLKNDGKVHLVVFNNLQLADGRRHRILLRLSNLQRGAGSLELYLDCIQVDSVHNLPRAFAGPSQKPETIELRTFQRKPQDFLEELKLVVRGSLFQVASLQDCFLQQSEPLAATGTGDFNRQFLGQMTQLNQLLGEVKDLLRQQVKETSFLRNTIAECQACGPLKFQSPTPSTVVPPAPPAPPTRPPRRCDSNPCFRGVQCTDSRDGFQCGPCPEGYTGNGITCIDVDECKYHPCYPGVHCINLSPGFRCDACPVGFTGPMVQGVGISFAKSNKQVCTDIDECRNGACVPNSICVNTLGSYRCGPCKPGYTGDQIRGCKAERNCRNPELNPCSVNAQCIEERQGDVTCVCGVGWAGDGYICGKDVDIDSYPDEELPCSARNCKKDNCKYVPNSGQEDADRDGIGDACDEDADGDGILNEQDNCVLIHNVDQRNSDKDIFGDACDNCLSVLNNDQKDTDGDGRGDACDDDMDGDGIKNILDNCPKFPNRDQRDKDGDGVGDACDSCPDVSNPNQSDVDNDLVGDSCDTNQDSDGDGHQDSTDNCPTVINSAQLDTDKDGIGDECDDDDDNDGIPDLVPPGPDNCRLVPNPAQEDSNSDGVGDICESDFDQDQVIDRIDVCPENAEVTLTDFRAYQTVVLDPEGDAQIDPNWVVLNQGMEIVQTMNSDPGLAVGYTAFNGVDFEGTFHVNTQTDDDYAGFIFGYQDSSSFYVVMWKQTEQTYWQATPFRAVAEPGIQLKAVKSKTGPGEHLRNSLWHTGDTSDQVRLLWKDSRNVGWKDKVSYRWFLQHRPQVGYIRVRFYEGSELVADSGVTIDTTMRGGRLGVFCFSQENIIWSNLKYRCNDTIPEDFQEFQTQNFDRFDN
Description: as §1

[5] = Dynamic light scattering of COMP solution with ZnCl; type: physicochemical; conditions: 20 °C, cumulant radius over time
Description: Dynamic light scattering (DLS) was measured with a Wyatt DynaPro Nanostar using the disposable cuvettes (UVettes, Eppendorf). Data was acquired as a mean of 5 acquisitions, measured each for 5 s at a fixed temperature of 20 °C. The laser was set to auto-attenuation and the data analysed with the Dynamics software from Wyatt. Graph show the cumulant radius versus time for COMP with indicated ZnCl2 concentrations.

Compound: [Cl-].[Cl-].[Zn+2] [zinc, reference compound]
- effect of additive in interaction buffer on COMP binding to peptide 5 [1]: increased the affinity towards the peptides

Compound: collagen II: collagen II, literature value for COMP binding
- Kd [2]: 1.72 ± 0.16 nM

Compound: GLPGPKGHR
- Kd [1]: 2.26 ± 0.39 nM
- Melting point (°C) [3]: 52.5 ± 0.6 °C

Compound: O=C(O)CN(CCN(CC(=O)O)CC(=O)O)CC(=O)O [EDTA, reference compound]
- effect of additive in interaction buffer on COMP binding to peptide 5 [1]: reduced the binding significantly

Compound: GLPGVKGHP
- Melting point (°C) [3]: 47.9 ± 0.4 °C

Compound: GVKGHR
- Kd [4]: 0.56 ± 0.05 nM
- Kd [1]: 1.61 ± 0.29 nM
- Melting point (°C) [3]: 56.5 ± 0.6 °C

Compound: GEAGEPGERGLKGHRGFTGLQGLPGPP [peptide 52, library peptide with the C-terminal GLKGHR motif of collagen II, foldon context]
- Kd [1]: 4.1 ± 0.8 nM

Compound: GLPGVKGHR [unique region of pep5 in N-Strep-(GPP)6-GUEST-(GPP)6-foldon context]
- COMP binding to minimal motif peptides (ELISA signal) ([1]; COMP at 400 nM, one-point measurements (Fig. 4a), or at indicated concentrations (Fig. 4b)): sufficient for binding
- Melting point (°C) [3]: 48.2 ± 0.6 °C

Compound: c1cnc2c(c1)ccc1cccnc12 [phenanthroline, 1,10-phenanthroline, reference compound]
- effect of additive in interaction buffer on COMP binding to peptide 5 [1]: does not reduce the binding compared to pure TBS

Compound: COMP: recombinant pentameric cartilage oligomeric matrix protein, Strep-tagged, expressed in HEK293 (EBNA) cells
- hydrodynamic radius via DLS (aggregation) ([5]; 0.0 mM versus 0.1 mM ZnCl): could not detect any difference
- hydrodynamic radius via DLS (aggregation) ([5]; addition of 1 mM ZnCl): starts to aggregate dramatically

Compound: GARGFPGTPGLPGVKGHRGYPGLDGAK [peptide 5, E. coli expressed collagen II library peptide in NStrep-(GPP)6-GUEST-(GPP)6-foldon context]
- Kd [1]: 19.3 ± 12.4 nM
- Melting point (°C) [3]: 36.1 ± 0.5 °C

Compound: GLPGVPGHR
- Melting point (°C) [3]: 51.1 ± 0.3 °C
